In patent US20240092872A1 (VIR BIOTECHNOLOGY, published 2024):

Experiments:
[1] = target: T1, Human complement component C1q (human, UniProt P02745 23-245; P02746 28-253; P02747 29-245); assay: BLI (Octet RED96); IgG captured through the Fab on anti-human Fab (CH1) sensors
T1 construct: mature; also called purified human C1q
Description: IgG-loaded sensors were then exposed for 4 minutes to a solution of kinetics buffer (pH 7.1) containing 3 μg/ml of purified human C1q (left part of the plot), followed by a dissociation step in the same buffer for 4 additional minutes (right part of the plot). Association and dissociation profiles were measured in real time as change in the interference pattern using an Octet RED96 (FortéBio).

[2] = target: T2, Recombinant human FcγRIIa (H131) (human, UniProt P12318 34-218); assay: BLI (Octet RED96); His-tagged FcγR on anti-penta-His sensors, 2 µg/ml mAb cross-linked with anti-human F(ab')2
T2 construct: also called FcγRIIa allele H131; His-tagged human FcγRIIa H131
T2 sequence: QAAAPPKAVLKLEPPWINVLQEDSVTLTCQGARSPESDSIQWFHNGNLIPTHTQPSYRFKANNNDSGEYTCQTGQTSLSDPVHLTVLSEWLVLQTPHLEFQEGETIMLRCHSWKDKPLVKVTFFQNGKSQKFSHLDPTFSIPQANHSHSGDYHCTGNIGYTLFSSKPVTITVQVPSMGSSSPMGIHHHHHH
Description: (§1) Briefly, His-tagged human FcγRs (FcγRIIa allele H131, FcγRIIa allele R131, FcγRIIAa allele F158, FcγRIIIa allele V158 and FcγRIIb) at 2 μg/ml were captured onto anti-penta-His sensors for 6 minutes. FcγR-loaded sensors were then exposed for 4 minutes to a solution of kinetics buffer (pH 7.1) containing 2 μg/ml of each mAb in the presence 1 μg/ml of affiniPure F(ab′)₂ Fragment Goat Anti-Human IgG, F(ab′)₂ fragment-specific (to cross-link human mAbs through the Fab fragment), followed by a dissociation step in the same buffer for 4 additional minutes (right part of the plot). Association and dissociation profiles were measured in real time as change in the interference pattern using an Octet RED96 (FortéBio).

[3] = target: T3, His-tagged human FcγRIIa allele R131 (human, UniProt P12318 34-218); assay: as above
T3 construct: also called FcγRIIa R131
T3 sequence (looked up): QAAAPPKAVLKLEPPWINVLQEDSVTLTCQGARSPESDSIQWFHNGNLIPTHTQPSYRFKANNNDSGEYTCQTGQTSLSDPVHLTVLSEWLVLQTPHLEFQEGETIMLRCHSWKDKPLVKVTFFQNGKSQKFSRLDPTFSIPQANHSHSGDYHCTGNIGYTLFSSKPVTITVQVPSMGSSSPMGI
Description: as §1

[4] = target: T4, Recombinant human FcγRIIIa (F158) (human, UniProt P08637 17-208); assay: as above
T4 construct: also called FcγRIIIa allele F158; His-tagged human FcγRIIIa F158
Description: as §1

[5] = target: T5, Recombinant human FcγRIIIa (V158) (human, UniProt P08637 17-208); assay: as above
T5 construct: also called FcγRIIIa allele V158; His-tagged human FcγRIIIa V158
T5 sequence (P08637 other isoform, or with tags, fused parts or gaps limits assumed): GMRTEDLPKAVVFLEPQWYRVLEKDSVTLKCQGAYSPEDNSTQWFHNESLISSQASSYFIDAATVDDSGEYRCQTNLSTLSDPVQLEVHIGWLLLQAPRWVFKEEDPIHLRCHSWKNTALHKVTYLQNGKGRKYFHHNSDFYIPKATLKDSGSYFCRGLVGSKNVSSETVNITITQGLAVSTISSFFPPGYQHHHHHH
Description: as §1

T4 sequence (P08637 other isoform, or with tags, fused parts or gaps limits assumed): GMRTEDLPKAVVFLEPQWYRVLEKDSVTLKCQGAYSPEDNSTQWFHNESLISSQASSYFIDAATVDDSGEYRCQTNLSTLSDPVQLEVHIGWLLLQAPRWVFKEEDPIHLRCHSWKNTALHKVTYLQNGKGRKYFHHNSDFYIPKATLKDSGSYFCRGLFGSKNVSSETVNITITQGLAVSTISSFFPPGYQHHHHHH
T1 sequence (P02745 23-245, chain 1 of 3): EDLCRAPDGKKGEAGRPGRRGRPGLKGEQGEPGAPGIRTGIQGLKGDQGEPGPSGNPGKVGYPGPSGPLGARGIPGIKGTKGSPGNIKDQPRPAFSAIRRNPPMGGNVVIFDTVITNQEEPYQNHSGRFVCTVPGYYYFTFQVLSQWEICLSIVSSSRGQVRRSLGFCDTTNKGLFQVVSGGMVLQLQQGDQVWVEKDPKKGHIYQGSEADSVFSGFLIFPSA
T1 sequence (P02746 28-253, chain 2 of 3): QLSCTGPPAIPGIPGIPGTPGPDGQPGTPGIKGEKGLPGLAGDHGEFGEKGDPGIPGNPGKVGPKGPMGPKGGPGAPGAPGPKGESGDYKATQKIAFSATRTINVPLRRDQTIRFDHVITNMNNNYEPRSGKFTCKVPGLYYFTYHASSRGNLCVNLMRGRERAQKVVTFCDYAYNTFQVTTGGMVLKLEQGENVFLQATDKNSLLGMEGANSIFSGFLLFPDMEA
T1 sequence (P02747 29-245, chain 3 of 3): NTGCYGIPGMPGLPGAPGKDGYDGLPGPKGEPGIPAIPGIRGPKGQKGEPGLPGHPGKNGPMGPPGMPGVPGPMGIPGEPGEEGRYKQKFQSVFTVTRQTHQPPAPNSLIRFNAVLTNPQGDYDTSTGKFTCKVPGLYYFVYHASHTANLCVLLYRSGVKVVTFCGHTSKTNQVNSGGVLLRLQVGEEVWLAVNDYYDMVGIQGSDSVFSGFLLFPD

B1: HBC34-V35-MLNS-GAALIE (antibody, human IgG1, lambda)
heavy: ELQLVESGGGWVQPGGSQRLSCAASGRIFRSFYMSWVRQAPGKGLEWVATINQDGSEKLYVDSVKGRFTISRDNAKNSLFLQMNNLRVEDTAVYYCAAWSGNSGGMDVWGQGTTVSVSSASTKGPSVFPLAPSSKSTSGGTAALGCLVKDYFPEPVTVSWNSGALTSGVHTFPAVLQSSGLYSLSSVVTVPSSSLGTQTYICNVNHKPSNTKVDKKVEPKSCDKTHTCPPCPAPELLAGPSVFLFPPKPKDTLMISRTPEVTCVVVDVSHEDPEVKFNWYVDGVEVHNAKTKPREEQYNSTYRVVSVLTVLHQDWLNGKEYKCKVSNKALPLPEEKTISKAKGQPREPQVYTLPPSRDELTKNQVSLTCLVKGFYPSDIAVEWESNGQPENNYKTTPPVLDSDGSFFLYSKLTVDKSRWQQGNVFSCSVLHEALHSHYTQKSLSLSPGK
light: SYELTQPPSVSVSPGQTVSIPCSGDKLGNKNVAWFQHKPGQSPVLVIYEVKYRPSGIPERFSGSNSGNTATLTISGTQAMDEAAYFCQTFDSTTVVFGGGTRLTVLGQPKAAPSVTLFPPSSEELQANKATLVCLISDFYPGAVTVAWKADSSPVKAGVETTTPSKQSNNKYAASSYLSLTPEQWKSHRSYSCQVTHEGSTVEKTVAPTECS
- binding result [1]: no binding (tested: 3 µg/ml of purified human C1q)
- binding result [2]: binds
- binding result [3]: binds
- binding result [4]: binds
- binding result [5]: binds
